Test results from patent US20090304686A1, “INTERFERING IN ACTIVATION OF AN IMMUNE CELL BY INFLUENCING INTERACTION OF LAIR AND COLLAGEN” (UNIVERSOTAIR MEDISCH CENTRUM UTRECHT, priority 2006, published 2009).

Experiments:
[1] = target: collagen I (purified, Sigma; acid-soluble human collagen type I in BIAcore) (human) (UniProt P02452); assay: SPR (BIAcore), biphasic dissociation from collagen I, component Koff1
[2] = target: collagen I (purified, Sigma; acid-soluble human collagen type I in BIAcore) (human) (UniProt P02452); assay: SPR (BIAcore), equilibrium binding to immobilised collagen I
[3] = target: collagen I (purified, Sigma; acid-soluble human collagen type I in BIAcore) (human) (UniProt P02452); assay: SPR (BIAcore), biphasic dissociation from collagen I, component Koff2

B1: hLAIR-1-IgG (extracellular domain of human LAIR-1 fused to the Fc region of human IgG1) (Fc fusion, UniProt Q6GTX8 22-165, looked up, not shown: a dimerising Fc or GST)
chain: QEEDLPRPSISAEPGTVIPLGSHVTFVCRGPVGVQTFRLERDSRSTYNDTEDVSQASPSESEARFRIDSVREGNAGLYRCIYYKPPKWSEQSDYLELLVKESSGGPDSPDTEPGSSAGPTQRPSDNSHNEHAPASQGLKAEHLY
Binder B1 has a koff [1] of 0.000142 s⁻¹, a Kd [2] of 14.2 nM and a koff [3] of 0.00187 s⁻¹.
